Experimental data published in patent publication US20230250177A1 (INTERVET, published 2023).
Blank lines part the entries; values can stand above or below the molecule they belong to.

What was measured:
[1] = molecular target: biotinylated canine IL-31 (canine); experiment: ELISA: IL-31RA coated at 10 µg/mL, biotinylated IL-31 titrated 3-fold from 10 µg/mL, HRP-streptavidin
[2] = molecular target: T1, canine IL-22 with a C-terminal HIS tag (canine); experiment: ELISA: cIL-22-His coated at 1 µg/mL, Fezakinumab titrated from 5 µg/mL, anti-human IgG Fc-HRP
T1 construct: Recombinant, made in HEK-293 or CHO cells; coated on the ELISA plate; also called cIL-22-His; canine IL-22-HIS
T1 chain: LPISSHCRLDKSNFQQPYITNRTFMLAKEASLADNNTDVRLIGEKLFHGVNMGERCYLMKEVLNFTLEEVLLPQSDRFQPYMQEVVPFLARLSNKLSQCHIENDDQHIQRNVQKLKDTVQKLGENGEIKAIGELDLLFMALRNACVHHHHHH
Method: The binding of canine IL-22 HIS to the anti-IL-22 antibody Fezakinumab was determined by ELISA as follows: […]

EC50 [1]: 0.368 µg/mL
Molecule: Canine IL-31RA ECD-10His (extracellular domain of canine IL-31 receptor alpha fused to a HIS tag)

binding result [2]: binds
B1: Fezakinumab (human monoclonal anti-IL-22 antibody) (antibody, human IgG1, lambda, V domains shown)
VH: QVQLVQSGAEVKKPGASVKVSCKASGYTFTNYYMHWVRQAPGQGLEWVGWINPYTGSAFYAQKFRGRVTMTRDTSISTAYMELSRLRSDDTAVYYCAREPEKFDSDDSDVWGRGTLVTVSS
VL: QAVLTQPPSVSGAPGQRVTISCTGSSSNIGAGYGVHWYQQLPGTAPKLLIYGDSNRPSGVPDRFSGSKSGTSASLAITGLQAEDEADYYCQSYDNSLSGYVFGGGTQLTVLG
notes: Full human heavy and light chains, marked PRIOR ART; made recombinantly in HEK-293 or CHO cells; also called Fezakinumab-mAb; Feza-mAb
